Measurements taken from the RNAGym collection of RNA variant scans (doi:10.1073/pnas.2313332121).
This sample holds only a part of the variants without activity.

B1: TPR 5TU (parent)
chain: GGAUCUUCUCGAUCUAACAAAAAAGACAAAUCUGCCACAAAGCUUGAGAGCAUCUUCGGAUGCAGAGGCGGCAGCCUUCGGUGGCGCGAUAGCGCCAACGUUCUCAACUAUGACACGCAAAACGCGUGCUCCGUUGAAUGGAGUUUAUCAUG

Variants of: B1
Assay: polymerase ribozyme fitness, log enrichment relative to wild type (log ratio); higher = more active; in vitro selection for triplet polymerase activity
How it was run: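 Each subunit of a heterodimeric triplet polymerase ribozyme was mutagenized into a library by PCR, transcribed, and subjected to one round of in vitro selection, run in triplicate. Libraries were annealed with a biotinylated primer, the partner subunit and triplets, incubated frozen at −7 °C, and extended constructs were gel-excised, captured on streptavidin beads and recovered by RT-PCR. Input and output libraries were sequenced on Illumina, keeping genotypes with ≥10 input reads and ≥1 read per output. Fitness is log base 2 of genotype enrichment divided by wild-type enrichment, from inverse-variance-weighted replicate averages.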

Variant	polymerase ribozyme fitness (log ratio)
GGAUCUUCUCGAUCUAACUAAAAAGACAAAUCUGCCACAAAGCUUGAGAACAUCUUCGGAUGCAGAGGCGACAGCCUUCGGUGGCGCGGUAGCGCCAACGUUCUCAACUAUGACACGCAAAACGCGUGCUCCGUUGGAUGGAGUUUAUCAUG	≤ -4.2
GGAUCUUCUCGAUCUAACUAAAAAGACAAAUCUGCCACAAAGCUUGAGAGCAUCUUCAGAUGCAGAGGCGGCAGCCUUCGGUGGCGCGAUAGCGCCAACGUUCUGAACUAUGACACGCAAAACGCGUGCUCCGUUGAAUGGAGUUUAUCAUG	-2.43
GGAUCUUCUCGAUCUAACUAAAAAGACAAAUCUGCCACAAAGCUUGAGAGCAUCUUCGGAUGCAGAGGCGGCAGCCUUCGGUGGCGCGAUAGCGCGAACGUUCUCAACUAUGAUACGCAAAACGCGUGCUCCGUUGAAUGGAGUUUAUCAUG	-2.99
GGAUCUUCUCGAUCUAACUAAAAAGACAAAUCUGCCACAAAGCUUGAGAGCAUCUUCGGAUGCAGAGGCGGCAGCCUUCGGUGGCGCGAUAGCGCCAACGUUCUCAACUAUGACACGCAAAAUGCGUGCUCCGUUGAAUGGAGUUUAUCAUG	-0.609
GGAUCUUCUCGAUCUAACUAAAAAGACAAAUCUGCCACAAAGCUUUAGAGCAUCUUCGGAUGCAGAGGCGGCAGCCUUCGGUGGCGCGCUAGCGCCAACGUUCUCAACUAUGACACGCAAAACGCGUGCUCCGUUGAAUGGAGUUUAUCAUG	-2.83
GGAUCUUCUCGAUCUAACUAAAAAGACAAAUCUGCCACAAAGCUUGAGAUAAUCUUCGGAUGCAGAGGCGGCAGCCUUCGGUGGCGCGAUAGCGCUAACGUUCUCAACUAUGACACGCGAAACGCGUGCUCCGUUGAAUGGAGUUUAUCAUG	-3.91
GGAUCUUCUCGAUCUAACUAAAAAGACAAAUCUGCCACAAAGCUUGAGAGCAUCUUCGGAUGCAGAGGCGGCAGCCUUCGGUGGCGCGAUAGCGCCAACGUUCUGAACUAUGACACGCAAAACGCGUGCUCCGUUGAAUGGAGUUUAUCAUG	-1.81
GGAUCUUCUCGAUCUAACUAAAAAUACAAAUCUGACACAAAGCUUGAGAGCAUCUUCGGAUGCAUAGGCGGCAGCCUUCGGUGGCGCGAUUGCGCCAACGUUCUCAACUAUGACACGCAGAACGCGUGCUCCGUUGAAUAGUGUUUAUCAUG	-4.19
GGAUCUUCUCGAUCUAACUAAAAAGACAAAUCUGCCACAAAGCUUUAGAGCUUCUUCGGAUGCAGAGGCGGCAGCCUUCGGUGGCGCGAUAGCGCCAACGUUCUCAACUAUGACACGCAAAACGCGUGCUCCGUUGAAUGGAGUUUAUCAUG	≤ -4.2
GGAUCUUCUCGAUCUAACUAAAAAGACAAAUCUGCCACAAAGCUUGAGAUCAUCUUCCGAUGCAGAGGCGGCAGUCUUCGGUGGCGCGAUAGCGCCAACGUUCUCAACUAUGACACGGAGAACGCGUGCUCCGUUGAAUGAAGUUAAUCAUG	≤ -4.2
GGAUCUUCUCGAUCUAACUAAAAAGACAAAUCUUCCACAAAGCUUGAGAGUACCUUCGGAUGCAGAGGCGGCAGCCUUCGAUGGCUCGAUAACGCUAGCGUUCUCAACUAUGACACGCAAAACGCGUGCUCCGUUGAAUGGAGUUUAUCAUG	≤ -4.2
GGAUCUUCUCGAUCUAACUAAAAAGACAAAUCUGCCACAAAGCUUGAGAGCAUCUUCGGAUGCAGAGGCGGCAGCCUUCGGUGGCGCGAUAGCGCUAACGUUCUCAACUAUGACACGCAAAACGCGUGCUCCGUUGAAUGGAGUUUAUCAUG	-0.369
GGAUCUUCUCGAUCUAACUAAAAAGACAAAUCUGCCACAAAGCUUGAGAGCAUCUUCGGAUGCAGAGGCGGCAGCCUUCGGUGGCGCGAUAGCGCAAACGUUCUCAACUAUGACACGCAAAACGCGUGCUCCGUUGAAUGGAGUUUAUCAUG	-0.531
GGAUCUUCUCGAUCUAACUAAAAAGACAAAUCUGCCACAAAGCUUGAGAGCAUCUUCGGAUGCAGAGGCGGCAGCCUUCGGUGGCGCGAUAGCGCCAACGUUCUCAACUAUGACACGCAAAACGCGUGCUACGUUGAAUGGAGUUUAUCAUG	-1.75
GGAUCUUCUCGAUCUAACUAAAAAGACAAAUCUGCCACAAAGCUUGAGAGCAUCUUCGGAUGCAGAGGCGGCAGCCUUCGGUGGCGCGAUAGCGCGAACGUUCUCAACUAUGACACGCAAAUCGCGUGCUCCGUUGAAUGGAGUUUAUCAUG	-0.445
GGAUCUUCUCGAUCUAACUAAAAAGACAAAUCUGCCACAAAGCUUGAUAGCAUCUUCGGAUGCAGAGGCGGCAGCCUUCGGUGGCGCGAUAGCGCCAACGUUCUCAACUAUGACACGCAAAACGCGUGCUCCGUUGAAUGGAGUUUAUCAUG	-0.613
GGAUCUUCUCGAUCUAACUAAAAAGACAAAUCUGCCACAAAGCUUGAAAGCAUCUUCGGAUGCAGAGGCGGCAGCCUUCGGUGGCGCGAUAGCGCCAACGUUCUCAACUAUGACACGCAAAACGCGUGCUCCGUUGAAUGGAGUUUAUCAUG	-1.05
GGAUCUUCUCGAUCUAACUAAAAAGACAAAUCUGCCACAAAGCUUGAAAGCAUCUUCGGAUGCAGAGGCGGCAGCCUUCGGUGGCGCGAUAGCGCCAACGUUCUCAACUAUGACAGGCAAAACGCGGGCUCCGUUGAAUGGAGUUUAUCAUG	≤ -4.2
GGAUCUUCUCGAUCUAACUAAAAAGACAAAUCUGCCACAAAGCUUGACAGCAUCUUCGGAUGCAGAGGCGGCAGUCCUCGGUGGCGCGAUAGGGCCAACGUUCUCAACUAUGACACGCAAAUCGCGUGCUCCGUUGAAUGGAGUUUAUCCUG	≤ -4.2
